{"source": "paper doi:10.1101/2022.06.29.498105", "about": "(bioRxiv, 2022)", "molecular_target": "the molecule itself", "test": "crystal structure"}
{"protein": "TRIM21 RING domain (domain or fragment) GSHMASAARLTMMWEEVTCPICLDPFVEPVSIECGHSFCQECISQVGKGGGSVCPVCRQRFLLKNLRPNRQLANMVNNLKEISQEARE", "values": [{"measurement": "stoichiometry N", "result": 2}]}
